Residue numbers refer to the chain shown, from its start.
T1: mouse BR3 extracellular domain (mouse, UniProt Q9D8D0 1-64)
T1 construct: also called mBR3-ECD; mBR-ECD
T1 sequence: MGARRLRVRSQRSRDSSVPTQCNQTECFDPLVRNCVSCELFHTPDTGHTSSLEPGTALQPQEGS

B1: Hu2.1-30 IgG (antibody, V domains shown)
VH: EVQLVESGGGLVQPGGSLRLSCAASGDSITRGYWNWVRQAPGKGLEWVGYINYSGTTYYNPSLKSRFTISRDTSKNTFYLQMNSLRAEDTAVYYCANLNYYGAMDYWGQGTLVTVSS
VL: DIQMTQSPSSLSASVGDRVTITCRASESVDDYGISFMHWYQQKPGKAPKLLIYRASDLESGVPSRFSGSGSGTDFTLTISSLQPEDFATYYCQQTSKDPWTFGQGTKVEIKR
notes: humanized IgG; also called h2.1-30
B2: Hu2.1-46 IgG (antibody, V domains shown)
VH: B1 VH with L98S, Y100F
VL: B1 VL
notes: humanized IgG; also called h2.1-46
B3: Hu2.1-94 IgG (antibody, V domains shown)
VH: B1 VH with F78L, N97T, L98S, N99H, Y100N, Y101T, A103E
VL: B1 VL
notes: humanized IgG; also called h2.1-94
B4: Hu9.1-88 IgG (antibody, V domains shown)
VH: EVQLVESGGGLVQPGGSLRLSCAASGFPVTGSYVSWVRQAPGKGLEWVGFIRDKANGYTTEYNPSVKGRFTISRDTSKNTLYLQMNSLRAEDTAVYYCAQVRRALDYWGQGTLVTVSS
VL: DIQMTQSPSSLSASVGDRVTITCKSSQSLLYSSNQNNYLAWYQQKPGKAPKLLIYWASTRESGVPSRFSGSGSGTDFTLTISSLQPEDFATYYCQQYYTYPYTFGQGTKVEIKR
notes: humanized IgG; also called h9.1-88
B5: chimeric 9.1 IgG (antibody, V domains shown)
VH: EVKLVESGGGLVQPGGSLRLSCAISGFTVTAYYMSWVRQPPGKALEWLGFIRDKANGYTTEYNPSVKGRFTISRDNSQSIFYLQMNTLRAEDSATYYCAQVRRALDYWGQGTTVTVSA
VL: DIVMSQSPSSLAVSVGEKVTMSCKSSQSLLYSSNQNNYLAWYQQKPGQSPKLLIYWASTRESGVPDRFTGSGSGTDFTLTISSVKAEDLAVYYCQQYYTYPYTFGGGT
notes: also called Ch 9.1 IgG; ch 9.1
B6: V3-46s-9 Fab (Fab, V domains shown)
VH: EVQLVESGGGLVQPGGSLRLSCAASGFTISSSSIHWVRQAPGKGLEWVAWVLPSVGFTDYADSVKGRFTISADTSKNTAYLQMNSLRAEDTAVYYCARRVCYNRLGVCAGGMDYWGQGTLVTVSS
VL: DIQMTQSPSSLSASVGDRVTITCRASEDISTAVAWYQQKPGKAPKLLIFAASYLYSGVPSRFSGSGSGTDFTLTISSLQPEDFATYYCQQSQISPPTFGQGTKVEIK
notes: soluble Fab in SPR; also called V46s-9
B7: V3-46s-42 Fab (Fab, V domains shown)
VH: B6 VH
VL: B6 VL with F49Y, Y53F
notes: soluble Fab in SPR; also called V46s-42
B8: V3-46s IgG (antibody, V domains shown)
VH: B6 VH
VL: DIQMTQSPSSLSASVGDRVTITCRASQDVSTAVAWYQQKPGKAPKLLIYSASFLYSGVPSRFSGSGSGTDFTLTISSLQPEDFATYYCQQSQISPPTFGQGTKVEIKR
notes: also called hV3-46S; HuV3-46s-IgG
B9: h9.1-70 IgG (antibody, V domains shown)
VH: B4 VH with G26D, F27S, V29R, T30S, S32Y, V34I, R74A, L81A
VL: B4 VL with T59I, E61D
B10: h9.1-73 IgG (antibody, V domains shown)
VH: B4 VH with F27L, V29M, T30A, S32F, V34T, R74A, L81A
VL: B4 VL with S58Q, T59H, R60L, E61D
B11: V3-46 phage clone (Fab, V domains shown)
VH: B6 VH with S31N
VL: B8 VL
notes: also called V3-46 WT; clone 46
B12: V3-46s-34 phage clone (Fab, V domains shown)
VH: B6 VH
VL: B6 VL with T31S, A50S, Y53F, Y55F, I93V
B13: V3-46s-29 phage clone (Fab, V domains shown)
VH: B6 VH
VL: B6 VL with D28E, S30A, Y53F, Q92E, I93V
B14: V3-46s-10 phage clone (Fab, V domains shown)
VH: B6 VH
VL: B6 VL with T31S, Y55F, I93V
B15: V3-46s-13 phage clone (Fab, V domains shown)
VH: B6 VH
VL: B6 VL with D28E, S30A, Y55F, I93V, S94A
B16: V3-46s-40 phage clone (Fab, V domains shown)
VH: B6 VH
VL: B6 VL with D28E, S30A, A32S, A50S, I93V
B17: V3-46s-33 phage clone (Fab, V domains shown)
VH: B6 VH
VL: B6 VL with D28E, A50S, Q92E, I93V
B18: V3-46s-31 phage clone (Fab, V domains shown)
VH: B6 VH
VL: B6 VL with E27Q, S30A, A32S, Y55F, I93V
B19: V3-46s-37 phage clone (Fab, V domains shown)
VH: B6 VH
VL: B6 VL with E27Q, I29V, S30A, Y53F
B20: V3-46s-1 phage clone (Fab, V domains shown)
VH: B6 VH
VL: B6 VL with S30A, A32S, Y53F
B21: V3-46s-45 phage clone (Fab, V domains shown)
VH: B6 VH
VL: B6 VL with I29V, T31S, Y55F, Q90H, I93V
B22: V3-46s-7 phage clone (Fab, V domains shown)
VH: B6 VH
VL: B6 VL with T31S, A32S, A50S, Y53F, Y55F, Q92E, I93V
B23: V3-46s-12 phage clone (Fab, V domains shown)
VH: B6 VH with S30A
VL: B6 VL with T31S, Y53F
notes: differs from V3-46s in CDR-H1 as well

Biological target: T2, human BR3 extracellular domain (human, UniProt Q96RJ3 1-61)
T2 construct: biotinylated where used as tracer; also called hBR3-ECD; BR3-ECD
Experiment: SPR, BR3 ECD on chip;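 note: Anti-BR3 antibodies passed over the chip at high flow in PBS with 0.05% polysorbate 20, on and off rates fitted together globally to a 1:1 binding model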
Method: After coupling, unoccupied sites on the chip were blocked by injecting 20 μl of 1M ethanolamine, pH 8.5. The running buffer was PBS containing 0.05% polysorbate 20. […] The binding surface was regenerated by injecting 20-30 μl of 10 mM glycine.HCl (pH 1.5). […] Data were analyzed using a 1:1 binding model using global fitting. The association and dissociation rate constants were fitted simultaneously (BIAevaluation software).
A high flow rate was used in order to minimize mass transport effects.

| Binder | Kd | koff | kon |
| --- | --- | --- | --- |
| B1 | 0.017 nM | 4e-05 s⁻¹ | 2.41e+06 M⁻¹ s⁻¹ |
| B2 | 0.02 nM | 4.5e-05 s⁻¹ | 2.2e+06 M⁻¹ s⁻¹ |
| B3 | 0.037 nM | 6.6e-05 s⁻¹ | 1.77e+06 M⁻¹ s⁻¹ |
| B4 | 0.025 nM | 4.9e-05 s⁻¹ | 1.94e+06 M⁻¹ s⁻¹ |

Biological target: T3, variant human BR3-Fc fusion
T3 construct: produced in CHO cells; also called vBR3-Fc; vhBR3-Fc
Experiment: SPR, vBR3-Fc on chip;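 note: Anti-BR3 antibodies passed over chip-bound BR3-Fc in PBS with 0.05% polysorbate 20, on and off rates fitted together globally to a 1:1 binding model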

| Binder | Kd | koff | kon |
| --- | --- | --- | --- |
| B5 | 0.17 nM | – | – |
| B2 | 0.041 nM | 3.96e-05 s⁻¹ | 978000 M⁻¹ s⁻¹ |
| B3 | 0.253 nM | 0.000121 s⁻¹ | 477000 M⁻¹ s⁻¹ |
| B4 | 0.2 nM | 0.000262 s⁻¹ | 1.3e+06 M⁻¹ s⁻¹ |

Biological target: T2, human BR3 extracellular domain
Experiment: SPR BIAcore-3000, Fab
From the text: (§1) Surface plasmon resonance assays on a BIAcore™-3000 were used to determine the affinity of the Fabs.

| Binder | Kd | koff | kon |
| --- | --- | --- | --- |
| B6 | 0.09 nM | 1.6e-05 s⁻¹ | 160000 M⁻¹ s⁻¹ |
| B7 | 0.026 nM | 1.4e-05 s⁻¹ | 617000 M⁻¹ s⁻¹ |

Biological target: T1, mouse BR3 extracellular domain
Experiment: SPR BIAcore-3000, Fab
From the text: as §1

| Binder | Kd | koff | kon |
| --- | --- | --- | --- |
| B6 | 0.32 nM | 0.00015 s⁻¹ | 470000 M⁻¹ s⁻¹ |
| B7 | 0.39 nM | 0.00029 s⁻¹ | 740000 M⁻¹ s⁻¹ |

Biological target: T4, human BR3 expressed on cells (human, UniProt Q96RJ3 1-184)
T4 construct: whole, on cells; also called BR3 on BJAB cells; cell surface BR3
Experiment: BJAB cells, direct binding
Method: Direct and competitive binding assays were performed as follows. For the direct binding assay, IgG antibody samples were serially diluted in cold assay buffer to concentrations ranging between 300-0.02 nM. Samples (100 μl) were added to the pelleted cells, and the plates were incubated for 45 min on ice. An additional 100 μl assay buffer was then added to each well, and the plates were centrifuged at 1200 rpm for 5 min at 4° C. After carefully aspirating the supernatant, the cells were washed two additional times with 200 μl assay buffer. An anti-mouse IgG Fc-HRP or goat anti-human IgG Fc-HRP, as appropriate, was diluted 1/10,000 in cold assay buffer was added (100 μl/well, Jackson ImmunoResearch, West Grove, Pa.), and the plates were incubated on ice for 45 min. Following two washes with 200 μl cold assay buffer, tetramethyl benzidine (TMB, Kirkegaard & Perry Laboratories, Gaithersburg, Md.) was added, and color was allowed to develop for 10 min. One hundred microliters 1 M H₃PO₄ was added to stop the reaction. The plates were then read on a microplate reader at 450 nm with a 620 nm reference. In the direct binding assay, the indicated concentrations of mAbs were added to BJAB cells and bound mAb was detected.

| Binder | EC50 |
| --- | --- |
| B5 | 0.36 nM |
| B8 | 1.8 nM |
| B1 | 0.11 nM |
| B2 | 0.11 nM |
| B4 | 0.43 nM |
| B9 | 0.33 nM |
| B10 | 0.79 nM |

Biological target: T2, human BR3 extracellular domain
Experiment: phage competition ELISA

| Binder | IC50 |
| --- | --- |
| B11 | 0.2 nM |

Biological target: T1, mouse BR3 extracellular domain
Experiment: phage competition ELISA

| Binder | IC50 |
| --- | --- |
| B11 | 0.8 nM |

Biological target: T2, human BR3 extracellular domain
Experiment: phage competition ELISA
Remark: another data set of the same source

| Binder | IC50 |
| --- | --- |
| B6 | 0.053 nM |
| B12 | 0.058 nM |
| B13 | 0.08 nM |
| B14 | 0.05 nM |
| B15 | 0.08 nM |
| B16 | 0.164 nM |
| B17 | 0.1 nM |
| B18 | 0.12 nM |
| B19 | 0.131 nM |
| B20 | 0.07 nM |
| B21 | 0.121 nM |
| B22 | 0.19 nM |
| B23 | 0.053 nM |

Biological target: T1, mouse BR3 extracellular domain
Experiment: phage competition ELISA
Remark: another data set of the same source

| Binder | IC50 |
| --- | --- |
| B6 | 0.182 nM |
| B12 | 0.79 nM |
| B13 | 0.55 nM |
| B14 | 0.193 nM |
| B15 | 0.713 nM |
| B16 | 0.53 nM |
| B17 | 0.724 nM |
| B18 | 0.342 nM |
| B19 | 0.32 nM |
| B20 | 0.3 nM |
| B21 | 0.37 nM |
| B22 | 0.96 nM |
| B23 | 0.209 nM |

Biological target: T2, human BR3 extracellular domain
Experiment: SPR, IgG on chip, BR3 ECD in solution

| Binder | Kd | koff | kon |
| --- | --- | --- | --- |
| B1 | 0.02 nM | 7.6e-05 s⁻¹ | 3.57e+06 M⁻¹ s⁻¹ |
| B2 | 0.193 nM | 0.000432 s⁻¹ | 2.24e+06 M⁻¹ s⁻¹ |
| B4 | 0.911 nM | 0.000926 s⁻¹ | 1.02e+06 M⁻¹ s⁻¹ |

Biological target: T4, human BR3 expressed on cells
Experiment: BJAB cells, competition with biotin-BAFF
Method: The diluted samples were added to the pelleted BJAB cells in 96 well plates as described above. After 45 min incubation on ice, the cells were washed twice with 200 μl cold assay buffer, and streptavidin-HRP (AMDEX, Amersham Biosciences, Piscataway, N.J.) diluted 1/5,000 in assay buffer was added (100 μl/well). The plates were incubated for a final 45 min on ice. After washing twice with cold assay buffer, color was developed using TMB, the reaction was stopped with H₃PO₄, and the plates were read as described above.

| Binder | IC50 |
| --- | --- |
| B8 | 1.9 nM |
| B1 | 0.17 nM |
| B2 | 0.19 nM |
| B3 | 5.1 nM |
| B4 | 0.6 nM |
| B9 | 0.82 nM |
| B10 | 1.78 nM |

Reference: patent US20100280227A1 (Genentech, published 2010)
